Tested on: duckweed-produced human microplasminogen
Sequence (chain, as listed by the source): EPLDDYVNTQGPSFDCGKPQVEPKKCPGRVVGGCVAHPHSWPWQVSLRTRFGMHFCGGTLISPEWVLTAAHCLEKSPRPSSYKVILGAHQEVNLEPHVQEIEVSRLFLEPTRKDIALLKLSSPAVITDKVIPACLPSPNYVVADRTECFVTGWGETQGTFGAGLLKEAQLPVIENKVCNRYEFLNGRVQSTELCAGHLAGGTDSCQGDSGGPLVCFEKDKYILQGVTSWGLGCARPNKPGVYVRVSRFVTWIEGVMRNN

Substance: urokinase
- Western blot: production of the B chain of plasmin: Western blot analysis confirmed the production of the B chain of plasmin following activation of duckweed-produced microplasminogen with either urokinase or tPA

— US20050262592
